In experiment [1] the target is T1, PD-L1 mutant L53D (mouse PD-L1-mCherry fusion) (mouse, UniProt Q9EP73 19-290).
T1 construct: whole, on cells; not shown: C-terminal mCherry (Clontech N1 mCherry vector)
The experiment can be described thus: microbead FACS binding assay: protein A microbeads loaded with Fc fusion, HEK 293 cells displaying the PD-L1-mCherry mutant. The procedure:
(§1) PD-L1 mCherry mutant constructs were transiently transfected into HEK 293S cells and subsequently challenged with protein A microbeads (Milltenyi) pre-saturated with a 4:1 mixture of PD-1 Fc-fusion and FITC-Fc protein. A total Fc protein to bead ratio of 5 ug/10 uL microbeads was utilized on the basis of a previous report from Genentech (16). The FITC-Fc served to make the otherwise non-fluorescent microbeads show green fluorescence. For each titration experiment, 500 μL of protein A microbeads were loaded with a mixture of 10 μg fluorescein isothiocyanate (FITC)-Fc and 40 μg of either PD-1-Fc or B7-1-Fc protein in a total volume of 5 mL 1× phosphate buffered saline (PBS). The beads were incubated overnight (˜16 hours) at 4° C. Loaded beads were stored for up to two weeks prior to use. Initial experiments determined that 75 μL of the loaded beads were sufficient to saturate 150,000 cells transfected with wild type PD-L1, (transfection efficiency being consistently 60-70%). For titration experiments, sets of wild type and mutant PD-L1 constructs were transfected in 24-well tissue culture plates containing 1 mL of suspension HEK-293 cells. Three days post transfection cells were counted, diluted to 1×10⁶ cell/mL with 1×PBS with 2% BSA. 150K cells (150 μL) were transferred to Eppendorf tubes, and 75 μL of loaded microbeads added along with an additional 100 μL 1×PBS with 2% bovine serum albumin (BSA). Reactions were mixed end over end for 1 hour at 4° C., 4′,6-diamidino-2-phenylindole (DAPI) was added and samples were immediately analyzed by flow cytometry on a BD Aria III cytometer. Data were analyzed by gating first for live cells (DAPI negative) then for mCherry positive cells (PD-L1 expression). The percentage of mCherry positive cells that were FITC positive (microbeads bound) was used as “percent bound”. For each experiment, the percent bound was normalized to wild type binding.
(§2) These cells were probed by flow cytometry for their ability to bind either FITC-loaded microbeads decorated with wild type PD-1 Ig-fusion or wild type B7-1 Ig-fusion proteins (FIG. 7B).

The target of experiment [2] is T2, PD-L1 mutant L53R (mouse PD-L1-mCherry fusion) (mouse, UniProt Q9EP73 19-290).
T2 construct: whole, on cells; not shown: C-terminal mCherry (Clontech N1 mCherry vector)
T2 sequence (Q9EP73 19-290 L53R): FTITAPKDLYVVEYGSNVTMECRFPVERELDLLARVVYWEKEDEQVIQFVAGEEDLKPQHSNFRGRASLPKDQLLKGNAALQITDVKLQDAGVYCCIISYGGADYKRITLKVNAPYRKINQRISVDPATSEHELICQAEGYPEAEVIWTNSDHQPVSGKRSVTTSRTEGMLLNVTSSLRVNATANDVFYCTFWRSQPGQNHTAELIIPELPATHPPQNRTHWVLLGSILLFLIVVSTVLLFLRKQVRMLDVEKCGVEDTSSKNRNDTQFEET
The experiment is described as above. The protocol: as §1, §2

The target in experiment [3] is T3, PD-L1 mutant I115D (mouse PD-L1-mCherry fusion) (mouse, UniProt Q9EP73 19-290).
T3 construct: whole, on cells; not shown: C-terminal mCherry (Clontech N1 mCherry vector)
T3 sequence (Q9EP73 19-290 I115D): as the sequence (Q9EP73 19-290 L53R) above, with R35L, I97D counted along it
Described as above. The protocol:
as §1, §2

Experiment [4] has as its target T4, PD-L1 mutant I116R (mouse PD-L1-mCherry fusion) (mouse, UniProt Q9EP73 19-290).
T4 construct: whole, on cells; not shown: C-terminal mCherry (Clontech N1 mCherry vector)
Described as above. The procedure:
as §1, §2

The target in experiment [5] is T5, PD-L1 mutant G119R (mouse PD-L1-mCherry fusion) (mouse, UniProt Q9EP73 19-290).
T5 construct: whole, on cells; not shown: C-terminal mCherry (Clontech N1 mCherry vector)
T5 sequence (Q9EP73 19-290 G119R): as the sequence (Q9EP73 19-290 L53R) above, with R35L, G101R counted along it
The experiment is described as above. The procedure: as §1, §2

The target of experiment [6] is T6, PD-L1 mutant G120A (mouse PD-L1-mCherry fusion) (mouse, UniProt Q9EP73 19-290).
T6 construct: whole, on cells; not shown: C-terminal mCherry (Clontech N1 mCherry vector)
T6 sequence (Q9EP73 19-290 G120A): as the sequence (Q9EP73 19-290 L53R) above, with R35L, G102A counted along it
The description is as above. The protocol:
as §1, §2

The target in experiment [7] is T7, PD-L1 mutant G120R (mouse PD-L1-mCherry fusion) (mouse, UniProt Q9EP73 19-290).
T7 construct: whole, on cells; not shown: C-terminal mCherry (Clontech N1 mCherry vector)
T7 sequence (Q9EP73 19-290 G120R): as the sequence (Q9EP73 19-290 L53R) above, with R35L, G102R counted along it
The experiment is described as above. The protocol:
as §1, §2

In experiment [8] the target is T8, PD-L1 mutant A121D (mouse PD-L1-mCherry fusion) (mouse, UniProt Q9EP73 19-290).
T8 construct: whole, on cells; not shown: C-terminal mCherry (Clontech N1 mCherry vector)
T8 sequence (Q9EP73 19-290 A121D): as the sequence (Q9EP73 19-290 L53R) above, with R35L, A103D counted along it
The description is as above. The protocol: as §1, §2

In experiment [9] the target is T9, PD-L1 mutant A121R (mouse PD-L1-mCherry fusion) (mouse, UniProt Q9EP73 19-290).
T9 construct: whole, on cells; not shown: C-terminal mCherry (Clontech N1 mCherry vector)
T9 sequence (Q9EP73 19-290 A121R): as the sequence (Q9EP73 19-290 L53R) above, with R35L, A103R counted along it
The experiment is described as above. The procedure:
as §1, §2

Experiment [10] concerns the target T10, PD-L1 mutant D122R (mouse PD-L1-mCherry fusion) (mouse, UniProt Q9EP73 19-290).
T10 construct: whole, on cells; not shown: C-terminal mCherry (Clontech N1 mCherry vector)
The experiment is described as above. The protocol: as §1, §2

Experiment [11] addresses T11, wild-type mouse PD-L1 mCherry (full-length mouse PD-L1 with C-terminal mCherry, on HEK 293 cells) (mouse, UniProt Q9EP73 19-290).
T11 construct: whole, on cells; also called wild type PD-L1; mPD-L1 mCherry; not shown: C-terminal mCherry (Clontech N1 mCherry vector)
In words: FACS competition: mPD-1 mIgG2a titrated (0.01-250 nM dimer) against 5 nM mB7-1 hIgG1 (competitor) on HEK 293 cells expressing mPD-L1 mCherry; one-site competition fit, three experiments. The source says: A mB7-1 hIgG1 Fc fusion construct was cloned which used the same erythropoietin (EPO) leader, mB7-1 ecto domain boundaries and linker sequence as the original mIgG2a construct described above. This construct was transiently expressed in HEK 293 cells and purified as described above for the other Fc fusion proteins used. For the completion experiment, HEK 293 suspension cells were transiently transfected with wild-type mPD-L1 mCherry. Three days post transfection transfected cells were counted and diluted to 1×10⁶ cells/mL. B7-1 hIgG1 fusion protein was added to 100,000 transfected cells at a final concentration of 5 nM dimer, in either the absence or presence of increasing concentrations of PD-1 mIgG2a protein (0.01-250 nM dimer). Parallel experiments were carried out in which purified mIgG2a isotype control was titrated at equivalent molar concentrations. Protein binding was carried out at 22° C. shaking at 900 rpm on a 96-well plate shaker for 1 hour. […] Cells were subsequently washed two more times with 1×PBS with 0.2% BSA. […] Competition data was normalized to 5 nM B7-1 binding in the absence of mPD-1 and plotted as a function of log [mPD-1]. Average data from three independent experiments was fit using a one-site competition model equation Y=min+(max−min)/(1+10^{x-log EC50}).
A) Cartoon depiction of the competition assay. […]

In experiment [12] the target is T11, wild-type mouse PD-L1 mCherry …. In words: cell microarray challenged with Fc fusion protein.
Experiment [13] concerns the target T12, PD-L1 mutant D122A (mouse PD-L1-mCherry fusion) (mouse, UniProt Q9EP73 19-290).
T12 construct: whole, on cells; not shown: C-terminal mCherry (Clontech N1 mCherry vector)
The experiment can be described thus: microbead FACS binding assay: protein A microbeads loaded with Fc fusion, HEK 293 cells displaying the PD-L1-mCherry mutant. The procedure: as §1, §2

The target in experiment [14] is T13, PD-L1 mutant Y123R (mouse PD-L1-mCherry fusion) (mouse, UniProt Q9EP73 19-290).
T13 construct: whole, on cells; not shown: C-terminal mCherry (Clontech N1 mCherry vector)
T13 sequence (Q9EP73 19-290 Y123R): as the sequence (Q9EP73 19-290 L53R) above, with R35L, Y105R counted along it
The description is as above. The protocol: as §1, §2

The target of experiment [15] is T14, PD-L1 mutant Y123A (mouse PD-L1-mCherry fusion) (mouse, UniProt Q9EP73 19-290).
T14 construct: whole, on cells; not shown: C-terminal mCherry (Clontech N1 mCherry vector)
T14 sequence (Q9EP73 19-290 Y123A): as the sequence (Q9EP73 19-290 L53R) above, with R35L, Y105A counted along it
The description is as above. The procedure: as §1, §2

The target in experiment [16] is T15, PD-L1 mutant K124A (mouse PD-L1-mCherry fusion) (mouse, UniProt Q9EP73 19-290).
T15 construct: whole, on cells; not shown: C-terminal mCherry (Clontech N1 mCherry vector)
T15 sequence (Q9EP73 19-290 K124A): as the sequence (Q9EP73 19-290 L53R) above, with R35L, K106A counted along it
The description is as above. The procedure: as §1, §2

The target in experiment [17] is T16, PD-L1 mutant K124D (mouse PD-L1-mCherry fusion) (mouse, UniProt Q9EP73 19-290).
T16 construct: whole, on cells; not shown: C-terminal mCherry (Clontech N1 mCherry vector)
T16 sequence (Q9EP73 19-290 K124D): as the sequence (Q9EP73 19-290 L53R) above, with R35L, K106D counted along it
The experiment is described as above. The protocol:
as §1, §2

The target of experiment [18] is T17, PD-L1 mutant R125A (mouse PD-L1-mCherry fusion) (mouse, UniProt Q9EP73 19-290).
T17 construct: whole, on cells; not shown: C-terminal mCherry (Clontech N1 mCherry vector)
T17 sequence (Q9EP73 19-290 R125A): as the sequence (Q9EP73 19-290 L53R) above, with R35L, R107A counted along it
The description is as above. The protocol:
as §1, §2

In experiment [19] the target is T18, PD-L1 mutant R125D (mouse PD-L1-mCherry fusion) (mouse, UniProt Q9EP73 19-290).
T18 construct: whole, on cells; not shown: C-terminal mCherry (Clontech N1 mCherry vector)
T18 sequence (Q9EP73 19-290 R125D): as the sequence (Q9EP73 19-290 L53R) above, with R35L, R107D counted along it
The description is as above. The protocol:
as §1, §2

T4 sequence (Q9EP73 19-290 I116R): as the sequence (Q9EP73 19-290 L53R) above, with R35L, I98R counted along it
T1 sequence (Q9EP73 19-290 L53D): as the sequence (Q9EP73 19-290 L53R) above, with R35D counted along it
T10 sequence (Q9EP73 19-290 D122R): as the sequence (Q9EP73 19-290 L53R) above, with R35L, D104R counted along it
T11 sequence (Q9EP73 19-290): as the sequence (Q9EP73 19-290 L53R) above, with R35L counted along it
T12 sequence (Q9EP73 19-290 D122A): as the sequence (Q9EP73 19-290 L53R) above, with R35L, D104A counted along it

B1: wild-type mPD-1 Fc (residues L25-Q167, mIgG2a-10×His) (Fc fusion, mouse, not shown: a dimerising Fc or GST)
chain (part 1 of 2): LEVPNGPWRSLTFYPAWLTVSEGANATFTCSLSNWSEDLMLNWNRLSPSNQTEKQAAFCNGLSQPVQDARFQIIQLPNRHDFHMNILDTRRNDSGIYLCGAISLHPKAKIEESPGAELVVTERILETSTRYPSPSPKPEGRFQ
chain (part 2 of 2): HHHHHHHHHH
notes: range 25-167; In the microbead assay it was loaded on protein A microbeads; also called PD-1 Fc-fusion; PD-1 Ig-fusion
Turning to B1, the binding result in [1], in [2], in [3], in experiment [4], in experiment [5] and in [6] was “no binding” in each case. For the same molecule, the binding result in experiment [7], in experiment [8], in experiment [9] and in experiment [10] was “no binding” throughout. It took 8.3 nM to reach a half-maximal effect in [11] (EC50).

B2: wild-type mB7-1 Fc (residues D37-K245, mIgG2a-10×His) (Fc fusion)
chain: DVDEQLSKSVKDKVLLPCRYNSPHEDESEDRIYWQKHDKVVLSVIAGKLKVWPEYKNRTLYDNTTYSLIILGLVLSDRGTYSCVVQKKERGTYEVKHLALVKLSIKADFSTPNITESGNPSADTKRITCFASGGFPKPRFSWLENGRELPGINTTISQDPESELYTISSQLDFNTTRNHTIKCLIKYGDAHVSEDFTWEKPPEDPPDSK
modifications: C-terminal mIgG2a Fc-10×His (dimerising carrier), not in the letters
notes: In the microbead assay it was loaded on protein A microbeads; also called B7-1 Fc-fusion; B7-1 Ig-fusion; not shown: the linker between ectodomain and Fc, the mouse IgG2a Fc and the 10xHis tag behind it
As for B2, the binding result in experiment [12], in [13], in [14], in experiment [15], in [16] and in experiment [17] was “binds” throughout. Moreover, the binding result in experiment [18] was “binds”; in [19] it was “binds”; in experiment [1] it was “no binding”; in experiment [2], “no binding”; in [3], “no binding”; in experiment [4], “no binding”. Also, the binding result in [5], in experiment [6], in [7], in experiment [8], in [9] and in experiment [10] was “no binding” each time.

The values above are taken from patent US20190153065A1 (ALBERT EINSTEIN COLLEGE OF MEDICINE, published 2019).
